Measurements: patent publication US20190040102A1 (CDRD VENTURES, published 2019)
Starred links: 1 amine or outer side, 2 acyl side, 3 side chain; linkers in the order of their positions; H or OH if unused. Positions of bridges follow the written chain, without caps; N, C: chain ends. Non-standard residues stand in square brackets, D forms with d. *: point of attachment. dPhe(4-phenylureido) = D-4-(phenylureido)Phe, O=C(Nc1ccccc1)Nc1ccc(C[C@@H](N[*:1])C(=O)[*:2])cc1; thiocarbamate = -NH-(C=O)-S- bridge between side chains (disulfide isostere); dPhe(4-CONH2) = NC(=O)c1ccc(C[C@@H](N)C(=O)O)cc1; Phe(4-Cl) = N[C@@H](Cc1ccc(Cl)cc1)C(=O)O; NMeC = CN[C@@H](CS)C(=O)O; dDap = NC[C@@H](N)C(=O)O; Dap = NC[C@H](N)C(=O)O; Hexanoyl = CCCCCC(=O)*

B1: Compound 55: Ac-Gly-Cpa-cyclo[D-Cys-Tyr-D-Phe(4-carbamoyl)-Lys(Nε-Me)-Thr-Cys]-D-Tyr-NH2 (peptide)
peptide: Ac-G[Phe(4-Cl)][dC]Y[dPhe(4-CONH2)]K(Me)TC[dY]-NH2
modifications: disulfide 3-8
SMILES: CNCCCC[C@@H]1NC(=O)[C@@H](Cc2ccc(C(N)=O)cc2)NC(=O)[C@H](Cc2ccc(O)cc2)NC(=O)[C@H](NC(=O)[C@H](Cc2ccc(Cl)cc2)NC(=O)CNC(C)=O)CSSC[C@@H](C(=O)N[C@H](Cc2ccc(O)cc2)C(N)=O)NC(=O)[C@H]([C@@H](C)O)NC1=O
B2: Compound 56: CH3(CH2)4(CO)-Cpa-cyclo[D-Cys-Tyr-D-Phe(4-carbamoyl)-Lys(Nε-Me)-Thr-Cys]-D-Tyr-NH2 (peptide)
peptide: Hexanoyl-[Phe(4-Cl)][dC]Y[dPhe(4-CONH2)]K(Me)TC[dY]-NH2
modifications: disulfide 2-7
SMILES: CCCCCC(=O)N[C@@H](Cc1ccc(Cl)cc1)C(=O)N[C@@H]1CSSC[C@@H](C(=O)N[C@H](Cc2ccc(O)cc2)C(N)=O)NC(=O)[C@H]([C@@H](C)O)NC(=O)[C@H](CCCCNC)NC(=O)[C@@H](Cc2ccc(C(N)=O)cc2)NC(=O)[C@H](Cc2ccc(O)cc2)NC1=O
B3: Compound 59: H-Cpa-[DCys-Tyr-DPhe(4-CN)-Lys-Thr-Cys]-DTyr-NH2 (peptide)
peptide: XXYXKTCX
HELM: PEPTIDE1{[N[C@@H](Cc1ccc(Cl)cc1)C(=O)[*:2]].[dC].Y.[N#Cc1ccc(C[C@@H](N[*:1])C(=O)[*:2])cc1].K.T.C.[dY].[am]}$PEPTIDE1,PEPTIDE1,2:R3-7:R3$$$V2.0
SMILES: C[C@@H](O)[C@@H]1NC(=O)[C@H](CCCCN)NC(=O)[C@@H](Cc2ccc(C#N)cc2)NC(=O)[C@H](Cc2ccc(O)cc2)NC(=O)[C@H](NC(=O)[C@@H](N)Cc2ccc(Cl)cc2)CSSC[C@@H](C(=O)N[C@H](Cc2ccc(O)cc2)C(N)=O)NC1=O
B4: Compound 69: H-Cpa-cyclo[DDap-Tyr-DPhe(4-CONH2)-Lys-Thr-Asp]-DTyr-NH2 (peptide)
peptide: H-[Phe(4-Cl)][dDap]Y[dPhe(4-CONH2)]KTD[dY]-NH2
modifications: lactam 2-7; not fully specified; printed as H-Cpa-cyclo[DDap-Tyr-DPhe(4-CONH2)-Lys-Thr-Asp]-DTyr-NH2
B5: Compound 70: H-Cpa-cyclo[DDap-Tyr-Xaa4-Lys-Thr-Asp]-DTyr-NH2 (peptide)
peptide: H-[Phe(4-Cl)][dDap]Y[dPhe(4-phenylureido)]KTD[dY]-NH2
modifications: lactam 2-7; not fully specified; printed as H-Cpa-cyclo[DDap-Tyr-Xaa4-Lys-Thr-Asp]-DTyr-NH2
B6: Compound 71: H-Cpa-cyclo[DDap-Tyr-DPhe(4-CONH2)-Lys(Me)-Thr-Asp]-DTyr-NH2 (peptide)
peptide: H-[Phe(4-Cl)][dDap]Y[dPhe(4-CONH2)]K(Me)TD[dY]-NH2
modifications: lactam 2-7; not fully specified; printed as H-Cpa-cyclo[DDap-Tyr-DPhe(4-CONH2)-Lys(Me)-Thr-Asp]-DTyr-NH2
B7: Compound 72: H-Cpa-cyclo[DCys-Tyr-D-(4-carbamoyl)Phe-(N-alpha-Me)Lys-Thr-Cys]-DTyr-NH2 (peptide)
peptide: XXYXXTCX
HELM: PEPTIDE1{[N[C@@H](Cc1ccc(Cl)cc1)C(=O)[*:2]].[dC].Y.[NC(=O)c1ccc(C[C@@H](N[*:1])C(=O)[*:2])cc1].[meK].T.C.[dY].[am]}$PEPTIDE1,PEPTIDE1,2:R3-7:R3$$$V2.0
SMILES: C[C@@H](O)[C@@H]1NC(=O)[C@H](CCCCN)N(C)C(=O)[C@@H](Cc2ccc(C(N)=O)cc2)NC(=O)[C@H](Cc2ccc(O)cc2)NC(=O)[C@H](NC(=O)[C@@H](N)Cc2ccc(Cl)cc2)CSSC[C@@H](C(=O)N[C@H](Cc2ccc(O)cc2)C(N)=O)NC1=O
B8: Compound 73: H-Cpa-[DCys-Tyr-DPhe(4-carbamoyl)-Lys-NMeThr-Cys]-DTyr-NH2 (peptide)
peptide: XXYXKXCX
HELM: PEPTIDE1{[N[C@@H](Cc1ccc(Cl)cc1)C(=O)[*:2]].[dC].Y.[NC(=O)c1ccc(C[C@@H](N[*:1])C(=O)[*:2])cc1].K.[meT].C.[dY].[am]}$PEPTIDE1,PEPTIDE1,2:R3-7:R3$$$V2.0
SMILES: C[C@@H](O)[C@H]1C(=O)N[C@H](C(=O)N[C@H](Cc2ccc(O)cc2)C(N)=O)CSSC[C@@H](NC(=O)[C@@H](N)Cc2ccc(Cl)cc2)C(=O)N[C@@H](Cc2ccc(O)cc2)C(=O)N[C@H](Cc2ccc(C(N)=O)cc2)C(=O)N[C@@H](CCCCN)C(=O)N1C
B9: Compound 74: H-Cpa-[DCys-NMeTyr-DPhe(4-carbamoyl)-Lys-Thr-Cys]-DTyr-NH2 (peptide)
peptide: XXXXKTCX
HELM: PEPTIDE1{[N[C@@H](Cc1ccc(Cl)cc1)C(=O)[*:2]].[dC].[meY].[NC(=O)c1ccc(C[C@@H](N[*:1])C(=O)[*:2])cc1].K.T.C.[dY].[am]}$PEPTIDE1,PEPTIDE1,2:R3-7:R3$$$V2.0
SMILES: C[C@@H](O)[C@@H]1NC(=O)[C@H](CCCCN)NC(=O)[C@@H](Cc2ccc(C(N)=O)cc2)NC(=O)[C@H](Cc2ccc(O)cc2)N(C)C(=O)[C@H](NC(=O)[C@@H](N)Cc2ccc(Cl)cc2)CSSC[C@@H](C(=O)N[C@H](Cc2ccc(O)cc2)C(N)=O)NC1=O
B10: Compound 75: H-Cpa-[DCys-NMeTyr-DPhe(4-carbamoyl)-Lys-NMeThr-Cys]-DTyr-NH2 (peptide)
peptide: XXXXKXCX
HELM: PEPTIDE1{[N[C@@H](Cc1ccc(Cl)cc1)C(=O)[*:2]].[dC].[meY].[NC(=O)c1ccc(C[C@@H](N[*:1])C(=O)[*:2])cc1].K.[meT].C.[dY].[am]}$PEPTIDE1,PEPTIDE1,2:R3-7:R3$$$V2.0
SMILES: C[C@@H](O)[C@H]1C(=O)N[C@H](C(=O)N[C@H](Cc2ccc(O)cc2)C(N)=O)CSSC[C@@H](NC(=O)[C@@H](N)Cc2ccc(Cl)cc2)C(=O)N(C)[C@@H](Cc2ccc(O)cc2)C(=O)N[C@H](Cc2ccc(C(N)=O)cc2)C(=O)N[C@@H](CCCCN)C(=O)N1C
B11: Compound 76: H-Cpa-[DCys-Tyr-DPhe(4-carbamoyl)-Lys-Thr-NMeCys]-DTyr-NH2 (peptide)
peptide: H-[Phe(4-Cl)][dC]Y[dPhe(4-CONH2)]KT[NMeC][dY]-NH2
modifications: disulfide 2-7
SMILES: C[C@@H](O)[C@@H]1NC(=O)[C@H](CCCCN)NC(=O)[C@@H](Cc2ccc(C(N)=O)cc2)NC(=O)[C@H](Cc2ccc(O)cc2)NC(=O)[C@H](NC(=O)[C@@H](N)Cc2ccc(Cl)cc2)CSSC[C@@H](C(=O)N[C@H](Cc2ccc(O)cc2)C(N)=O)N(C)C1=O

target: somatostatin receptor type 2 (SSTR2) (UniProt P30874 1-369); assay: cell-based or functional assay
Sequence (P30874 whole entry): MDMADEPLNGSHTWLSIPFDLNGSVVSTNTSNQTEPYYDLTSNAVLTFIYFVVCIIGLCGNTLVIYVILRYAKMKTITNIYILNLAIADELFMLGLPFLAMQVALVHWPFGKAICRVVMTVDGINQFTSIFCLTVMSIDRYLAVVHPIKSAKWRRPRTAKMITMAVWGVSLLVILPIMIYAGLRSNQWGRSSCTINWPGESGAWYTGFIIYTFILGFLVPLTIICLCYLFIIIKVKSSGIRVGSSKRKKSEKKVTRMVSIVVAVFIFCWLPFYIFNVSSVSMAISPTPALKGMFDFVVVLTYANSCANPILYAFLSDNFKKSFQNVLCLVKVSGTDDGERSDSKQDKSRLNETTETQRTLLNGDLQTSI

Binder	IC50 (PathHunter β-Arrestin, antagonist mode) [nM]
B1	3.35
B2	1.6
{2‑furoyl}-[Phe(4-Cl)][dC]Y[dPhe(4-CONH2)]K(Me)TC[dY]-NH2 (disulfide 2-7) [Compound 57: (Furan-2-carboxy)-Cpa-cyclo[D-Cys-Tyr-D-Phe(4-carbamoyl)-Lys(Nε-Me)-Thr-Cys]-D-Tyr-NH2]	3.65
{CH3O2C(CH2)2(CO)}-[Phe(4-Cl)][dC]Y[dPhe(4-CONH2)]K(Me)TC[dY]-NH2 (disulfide 2-7) [Compound 58: CH3O2C(CH2)2(CO)-Cpa-cyclo[D-Cys-Tyr-D-Phe(4-carbamoyl)-Lys(Nε-Me)-Thr-Cys]-D-Tyr-NH2]	2.36
B3	39.1
H-[Phe(4-Cl)][dDap]Y[dPhe(4-CONH2)]KTC[dY]-NH2 (bridge 2-7 via thiocarbamate) [Compound 60: H-Cpa-cyclo[DDap-Tyr-DPhe(4-CONH2)-Lys-Thr-Cys]-DTyr-NH2]	> 1000
H-[Phe(4-Cl)][Dap]Y[dPhe(4-CONH2)]KTC[dY]-NH2 (bridge 2-7 via thiocarbamate) [Compound 61: H-Cpa-cyclo[Dap-Tyr-DPhe(4-CONH2)-Lys-Thr-Cys]-DTyr-NH2]	> 1000
H-[Phe(4-Cl)][dC]Y[dPhe(4-CONH2)]KT[Dap][dY]-NH2 (bridge 2-7 via thiocarbamate) [Compound 62: H-Cpa-cyclo[DCys-Tyr-DPhe(4-CONH2)-Lys-Thr-Dap]-DTyr-NH2]	> 1000
H-[Phe(4-Cl)][dC]Y[dPhe(4-CONH2)]K(Me)T[Dap][dY]-NH2 (bridge 2-7 via thiocarbamate) [Compound 63: H-Cpa-cyclo[DCys-Tyr-DPhe(4-CONH2)-Lys(Me)-Thr-Dap]-DTyr-NH2]	> 1000
B4	> 1000
B5	> 1000
B6	13.3
B7	5.77
B8	547
B9	159
B10	> 1000
B11	400
